Assay [1] in a line: Aminoacylation reaction, simplified Lloyd's method, inorganic phosphate detected with Biomol green. The class given is biochemical. More on the design: key: ***: the aminoacylation reaction was detected by a microplate reader in the reaction at enzyme concentrations of 50 nM; **: 500 nM; *: 5 μM; the activity is high in the order of *** > ** > * > —. The following applies: tyrosine 200 μM, 37° C. for 4 min. On the procedure:
(§1) In the first method, Lloyd's method (Nucleic Acids Research, 23:2886-2892, 1995) where inorganic phosphate produced by pyrophosphatase-drived hydrolysis of pyrophosphate which was one of the reaction products of the aminoacylation reactions was quantified was simplified, and the inorganic phosphate was detected using Biomol green (Funakoshi) to carry out the measurement of the aminoacylation reaction.
(§2) Amino acid concentrations were 200 μM and 1 mM for tyrosine and 3-iodotyrosine, respectively.
The method where the aminoacylation reaction is measured by quantifying inorganic phosphate produced by pyrophosphatase-drived hydrolysis of pyrophosphate which is one of reaction products of the aminoacylation has been described by Lloyd et al. (Nucleic Acids Research, 23:2886-2892, 1995). In one method of the invention, this method was simplified and the aminoacylation reaction was measured by the detection of inorganic phosphate using Biomol green (Funakoshi). […] To stop the reaction, 0.1 ml of Bio mol green was added. Absorbance of its supernatant was measured at 630 nm.

Assay in assay [2]: as above
Format: biochemical. Set-up: key: ***: the aminoacylation reaction was detected by a microplate reader in the reaction at enzyme concentrations of 50 nM; **: 500 nM; *: 5 μM; the activity is high in the order of *** > ** > * > —. The following applies: 3-iodotyrosine 1 mM, 37° C. for 4 min. On the procedure: as §1, §2
The method where the aminoacylation reaction is measured by quantifying inorganic phosphate produced by pyrophosphatase-drived hydrolysis of pyrophosphate which is one of reaction products of the aminoacylation has been described by Lloyd et al. (Nucleic Acids Research, 23:2886-2892, 1995). In one method of the invention, this method was simplified and the aminoacylation reaction was measured by the detection of inorganic phosphate using Biomol green (Funakoshi). Each enzyme obtained was incubated with 0.05 ml of the buffer B containing 1 mM ATP (Seikagaku Corporation), 30 μM purified crude tyrosyl-tRNA, and 100 μM tyrosine or 0.5 mM 3-iodotyrosine at 37° C. for one hour. To stop the reaction, 0.1 ml of Bio mol green was added. Absorbance of its supernatant was measured at 630 nm.

B1: 37L: E. coli TyrRS variant: position 37 Leucine, position 195 Glutamine (protein, UniProt P0AGJ9 2-424, looked up, variant Y37L)
Tyrosine--tRNA ligase: ASSNLIKQLQERGLVAQVTDEEALAERLAQGPIALLCGFDPTADSLHLGHLVPLLCLKRFQQAGHKPVALVGGATGLIGDPSFKAAERKLNTEETVQEWVDKIRKQVAPFLDFDCGENSAIAANNYDWFGNMNVLTFLRDIGKHFSVNQMINKEAVKQRLNREDQGISFTEFSYNLLQGYDFACLNKQYGVVLQIGGSDQWGNITSGIDLTRRLHQNQVFGLTVPLITKADGTKFGKTEGGAVWLDPKKTSPYKFYQFWINTADADVYRFLKFFTFMSIEEINALEEEDKNSGKAPRAQYVLAEQVTRLVHGEEGLQAAKRITECLFSGSLSALSEADFEQLAQDGVPMVEMEKGADLMQALVDSELQPSRGQARKTIASNAITINGEKQSDPEYFFKEEDRLFGRFTLLRRGKKNYCLICWK
Regarding B1, the “Aminoacylation activity, Tyrosine” value in assay [1] (Table 2) was “***”. The “Aminoacylation activity, 3-iodotyrosine” value in assay [2] (Table 2) was “***”.

B2: LS: E. coli TyrRS double variant: position 37 Leucine, position 195 Serine (protein, UniProt P0AGJ9 2-424, looked up, variant Y37L Q195S)
Tyrosine--tRNA ligase: ASSNLIKQLQERGLVAQVTDEEALAERLAQGPIALLCGFDPTADSLHLGHLVPLLCLKRFQQAGHKPVALVGGATGLIGDPSFKAAERKLNTEETVQEWVDKIRKQVAPFLDFDCGENSAIAANNYDWFGNMNVLTFLRDIGKHFSVNQMINKEAVKQRLNREDQGISFTEFSYNLLQGYDFACLNKQYGVVLSIGGSDQWGNITSGIDLTRRLHQNQVFGLTVPLITKADGTKFGKTEGGAVWLDPKKTSPYKFYQFWINTADADVYRFLKFFTFMSIEEINALEEEDKNSGKAPRAQYVLAEQVTRLVHGEEGLQAAKRITECLFSGSLSALSEADFEQLAQDGVPMVEMEKGADLMQALVDSELQPSRGQARKTIASNAITINGEKQSDPEYFFKEEDRLFGRFTLLRRGKKNYCLICWK
As for B2, in assay [1] (Table 3), the “Aminoacylation activity, Tyrosine” value is “—”. Also, the “Aminoacylation activity, 3-iodotyrosine” value in assay [2] (Table 3) was “—”.

B3: 195N: E. coli TyrRS variant: position 37 Tyrosine, position 195 Asparagine (protein, UniProt P0AGJ9 2-424, looked up, variant Q195N)
Tyrosine--tRNA ligase: ASSNLIKQLQERGLVAQVTDEEALAERLAQGPIALYCGFDPTADSLHLGHLVPLLCLKRFQQAGHKPVALVGGATGLIGDPSFKAAERKLNTEETVQEWVDKIRKQVAPFLDFDCGENSAIAANNYDWFGNMNVLTFLRDIGKHFSVNQMINKEAVKQRLNREDQGISFTEFSYNLLQGYDFACLNKQYGVVLNIGGSDQWGNITSGIDLTRRLHQNQVFGLTVPLITKADGTKFGKTEGGAVWLDPKKTSPYKFYQFWINTADADVYRFLKFFTFMSIEEINALEEEDKNSGKAPRAQYVLAEQVTRLVHGEEGLQAAKRITECLFSGSLSALSEADFEQLAQDGVPMVEMEKGADLMQALVDSELQPSRGQARKTIASNAITINGEKQSDPEYFFKEEDRLFGRFTLLRRGKKNYCLICWK
As to B3, in assay [1] (Table 2), the “Aminoacylation activity, Tyrosine” value is “***”. Also, in assay [2] (Table 2), the “Aminoacylation activity, 3-iodotyrosine” value is given as “*”.

B4: IS: E. coli TyrRS double variant: position 37 Isoleucine, position 195 Serine (protein, UniProt P0AGJ9 2-424, looked up, variant Y37I Q195S)
Tyrosine--tRNA ligase: ASSNLIKQLQERGLVAQVTDEEALAERLAQGPIALICGFDPTADSLHLGHLVPLLCLKRFQQAGHKPVALVGGATGLIGDPSFKAAERKLNTEETVQEWVDKIRKQVAPFLDFDCGENSAIAANNYDWFGNMNVLTFLRDIGKHFSVNQMINKEAVKQRLNREDQGISFTEFSYNLLQGYDFACLNKQYGVVLSIGGSDQWGNITSGIDLTRRLHQNQVFGLTVPLITKADGTKFGKTEGGAVWLDPKKTSPYKFYQFWINTADADVYRFLKFFTFMSIEEINALEEEDKNSGKAPRAQYVLAEQVTRLVHGEEGLQAAKRITECLFSGSLSALSEADFEQLAQDGVPMVEMEKGADLMQALVDSELQPSRGQARKTIASNAITINGEKQSDPEYFFKEEDRLFGRFTLLRRGKKNYCLICWK
Turning to B4, in assay [1] (Table 3), the “Aminoacylation activity, Tyrosine” value was “—”. In addition, the “Aminoacylation activity, 3-iodotyrosine” value in assay [2] (Table 3) was “—”.

B5: 37I: E. coli TyrRS variant: position 37 Isoleucine, position 195 Glutamine (protein, UniProt P0AGJ9 2-424, looked up, variant Y37I)
Tyrosine--tRNA ligase: ASSNLIKQLQERGLVAQVTDEEALAERLAQGPIALICGFDPTADSLHLGHLVPLLCLKRFQQAGHKPVALVGGATGLIGDPSFKAAERKLNTEETVQEWVDKIRKQVAPFLDFDCGENSAIAANNYDWFGNMNVLTFLRDIGKHFSVNQMINKEAVKQRLNREDQGISFTEFSYNLLQGYDFACLNKQYGVVLQIGGSDQWGNITSGIDLTRRLHQNQVFGLTVPLITKADGTKFGKTEGGAVWLDPKKTSPYKFYQFWINTADADVYRFLKFFTFMSIEEINALEEEDKNSGKAPRAQYVLAEQVTRLVHGEEGLQAAKRITECLFSGSLSALSEADFEQLAQDGVPMVEMEKGADLMQALVDSELQPSRGQARKTIASNAITINGEKQSDPEYFFKEEDRLFGRFTLLRRGKKNYCLICWK
Turning to B5, the “Aminoacylation activity, Tyrosine” value in assay [1] (Table 2) is on record as “**”. Besides, the “Aminoacylation activity, 3-iodotyrosine” value in assay [2] (Table 2) is listed as “***”.

B6: 195C: E. coli TyrRS variant: position 37 Tyrosine, position 195 Cysteine (protein, UniProt P0AGJ9 2-424, looked up, variant Q195C)
Tyrosine--tRNA ligase: ASSNLIKQLQERGLVAQVTDEEALAERLAQGPIALYCGFDPTADSLHLGHLVPLLCLKRFQQAGHKPVALVGGATGLIGDPSFKAAERKLNTEETVQEWVDKIRKQVAPFLDFDCGENSAIAANNYDWFGNMNVLTFLRDIGKHFSVNQMINKEAVKQRLNREDQGISFTEFSYNLLQGYDFACLNKQYGVVLCIGGSDQWGNITSGIDLTRRLHQNQVFGLTVPLITKADGTKFGKTEGGAVWLDPKKTSPYKFYQFWINTADADVYRFLKFFTFMSIEEINALEEEDKNSGKAPRAQYVLAEQVTRLVHGEEGLQAAKRITECLFSGSLSALSEADFEQLAQDGVPMVEMEKGADLMQALVDSELQPSRGQARKTIASNAITINGEKQSDPEYFFKEEDRLFGRFTLLRRGKKNYCLICWK
As to B6, the “Aminoacylation activity, Tyrosine” value in assay [1] (Table 2) is reported as “***”. The “Aminoacylation activity, 3-iodotyrosine” value in assay [2] (Table 2) is “*”.

B7: 195A: E. coli TyrRS variant: position 37 Tyrosine, position 195 Alanine (protein, UniProt P0AGJ9 2-424, looked up, variant Q195A)
Tyrosine--tRNA ligase: ASSNLIKQLQERGLVAQVTDEEALAERLAQGPIALYCGFDPTADSLHLGHLVPLLCLKRFQQAGHKPVALVGGATGLIGDPSFKAAERKLNTEETVQEWVDKIRKQVAPFLDFDCGENSAIAANNYDWFGNMNVLTFLRDIGKHFSVNQMINKEAVKQRLNREDQGISFTEFSYNLLQGYDFACLNKQYGVVLAIGGSDQWGNITSGIDLTRRLHQNQVFGLTVPLITKADGTKFGKTEGGAVWLDPKKTSPYKFYQFWINTADADVYRFLKFFTFMSIEEINALEEEDKNSGKAPRAQYVLAEQVTRLVHGEEGLQAAKRITECLFSGSLSALSEADFEQLAQDGVPMVEMEKGADLMQALVDSELQPSRGQARKTIASNAITINGEKQSDPEYFFKEEDRLFGRFTLLRRGKKNYCLICWK
Turning to B7, the “Aminoacylation activity, Tyrosine” value in assay [1] (Table 2) is reported as “***”. Also, in assay [2] (Table 2), the “Aminoacylation activity, 3-iodotyrosine” value was “*”.

B8: 195S: E. coli TyrRS variant: position 37 Tyrosine, position 195 Serine (protein, UniProt P0AGJ9 2-424, looked up, variant Q195S)
Tyrosine--tRNA ligase: ASSNLIKQLQERGLVAQVTDEEALAERLAQGPIALYCGFDPTADSLHLGHLVPLLCLKRFQQAGHKPVALVGGATGLIGDPSFKAAERKLNTEETVQEWVDKIRKQVAPFLDFDCGENSAIAANNYDWFGNMNVLTFLRDIGKHFSVNQMINKEAVKQRLNREDQGISFTEFSYNLLQGYDFACLNKQYGVVLSIGGSDQWGNITSGIDLTRRLHQNQVFGLTVPLITKADGTKFGKTEGGAVWLDPKKTSPYKFYQFWINTADADVYRFLKFFTFMSIEEINALEEEDKNSGKAPRAQYVLAEQVTRLVHGEEGLQAAKRITECLFSGSLSALSEADFEQLAQDGVPMVEMEKGADLMQALVDSELQPSRGQARKTIASNAITINGEKQSDPEYFFKEEDRLFGRFTLLRRGKKNYCLICWK
Consider B8, for which, in assay [1] (Table 2), the “Aminoacylation activity, Tyrosine” value is reported as “***”. The “Aminoacylation activity, 3-iodotyrosine” value in assay [2] (Table 2) was “*”.

Source of the values: US7393670B2, “Tyrosyl-tRNA synthetase variants” (Japan Science and Technology Agency, priority 2001, dated 2008).
